Test results as given in article PMC9603416.

Biological target: T1, RR07-6xHis (Streptococcus pneumoniae R6) (UniProt Q8DRF5)
T1 sequence: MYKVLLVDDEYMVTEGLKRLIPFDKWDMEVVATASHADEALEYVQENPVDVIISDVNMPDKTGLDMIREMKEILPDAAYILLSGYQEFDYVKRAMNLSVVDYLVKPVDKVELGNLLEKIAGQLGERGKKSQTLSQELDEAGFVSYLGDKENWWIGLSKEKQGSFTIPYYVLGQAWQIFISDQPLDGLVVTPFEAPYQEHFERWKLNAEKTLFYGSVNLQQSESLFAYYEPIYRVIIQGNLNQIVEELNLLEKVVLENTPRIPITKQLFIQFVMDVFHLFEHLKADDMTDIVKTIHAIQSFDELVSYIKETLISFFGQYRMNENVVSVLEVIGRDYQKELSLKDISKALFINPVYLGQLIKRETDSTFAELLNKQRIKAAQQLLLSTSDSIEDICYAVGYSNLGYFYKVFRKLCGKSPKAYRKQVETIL
Experiment: EMSA
Conditions: EMSA: 1 nM dsDNA probe, increasing RR07, binding buffer 20 mM Tris-Cl (rest of the buffer, pH and temperature not in the material)

Row | Sequence | binding
1 | CACTGGTCTGGGGCACAAAGTAATTCATCCCAAAAGGCACGCCTGTGTATGGCAGGGTATTTCCCCGAGAGAAGGCATGCTTGCTAGCAGTACCAAAGCGGGTATCGATGGTTTCAAGTAGTGGTTTCATAGTCTTTCCTTTAGCTGTTTTTCTACATTATATCAGAAAAAGAGGGCCTTTAGAAAAGGAGTTTTAAAGATAACTATTTTGTAGAAAAATGACTATCATTTGTGTATGTATTTTCTGTCTCAAAAGCTATATACTGAACATGAAACTTGTTTGAAAGAGGGAATTGCACG (double strand) [Pgh125] | no binding
2 | TGCAAAACCTCCTGATTGCATTGTTATATTGATAGCGATTATATAAATCAACGCCTTTATTTTATTTCTTATATTAACGAGAGTCAAGAGGAGATGACAAAAAACTATAATAAGTATAAAAAAATATAAAATTTAAACTTAAGATTTCAGATTGGTCGAAAAAATACATATATATATCTAGTATAATTTTTGGTTCTATTTCTATAAAATATTCCACAAATTATAGAATCTTCCAAAAATAGGTAAGCGCTACCTTTTTGGTGTGGTATAATAAGC (double strand) [PstrH] | no binding
